According to patent publication US20060024722A1:

Molecular target: oncofetal fibronectin (human) (UniProt P02751)
Experiment: lateral flow sandwich assay (FDC-6 latex conjugate / immobilised goat anti-fibronectin), TLiIQ reflectance reader

Chain of UniProt P02751 (P02751 32-2477): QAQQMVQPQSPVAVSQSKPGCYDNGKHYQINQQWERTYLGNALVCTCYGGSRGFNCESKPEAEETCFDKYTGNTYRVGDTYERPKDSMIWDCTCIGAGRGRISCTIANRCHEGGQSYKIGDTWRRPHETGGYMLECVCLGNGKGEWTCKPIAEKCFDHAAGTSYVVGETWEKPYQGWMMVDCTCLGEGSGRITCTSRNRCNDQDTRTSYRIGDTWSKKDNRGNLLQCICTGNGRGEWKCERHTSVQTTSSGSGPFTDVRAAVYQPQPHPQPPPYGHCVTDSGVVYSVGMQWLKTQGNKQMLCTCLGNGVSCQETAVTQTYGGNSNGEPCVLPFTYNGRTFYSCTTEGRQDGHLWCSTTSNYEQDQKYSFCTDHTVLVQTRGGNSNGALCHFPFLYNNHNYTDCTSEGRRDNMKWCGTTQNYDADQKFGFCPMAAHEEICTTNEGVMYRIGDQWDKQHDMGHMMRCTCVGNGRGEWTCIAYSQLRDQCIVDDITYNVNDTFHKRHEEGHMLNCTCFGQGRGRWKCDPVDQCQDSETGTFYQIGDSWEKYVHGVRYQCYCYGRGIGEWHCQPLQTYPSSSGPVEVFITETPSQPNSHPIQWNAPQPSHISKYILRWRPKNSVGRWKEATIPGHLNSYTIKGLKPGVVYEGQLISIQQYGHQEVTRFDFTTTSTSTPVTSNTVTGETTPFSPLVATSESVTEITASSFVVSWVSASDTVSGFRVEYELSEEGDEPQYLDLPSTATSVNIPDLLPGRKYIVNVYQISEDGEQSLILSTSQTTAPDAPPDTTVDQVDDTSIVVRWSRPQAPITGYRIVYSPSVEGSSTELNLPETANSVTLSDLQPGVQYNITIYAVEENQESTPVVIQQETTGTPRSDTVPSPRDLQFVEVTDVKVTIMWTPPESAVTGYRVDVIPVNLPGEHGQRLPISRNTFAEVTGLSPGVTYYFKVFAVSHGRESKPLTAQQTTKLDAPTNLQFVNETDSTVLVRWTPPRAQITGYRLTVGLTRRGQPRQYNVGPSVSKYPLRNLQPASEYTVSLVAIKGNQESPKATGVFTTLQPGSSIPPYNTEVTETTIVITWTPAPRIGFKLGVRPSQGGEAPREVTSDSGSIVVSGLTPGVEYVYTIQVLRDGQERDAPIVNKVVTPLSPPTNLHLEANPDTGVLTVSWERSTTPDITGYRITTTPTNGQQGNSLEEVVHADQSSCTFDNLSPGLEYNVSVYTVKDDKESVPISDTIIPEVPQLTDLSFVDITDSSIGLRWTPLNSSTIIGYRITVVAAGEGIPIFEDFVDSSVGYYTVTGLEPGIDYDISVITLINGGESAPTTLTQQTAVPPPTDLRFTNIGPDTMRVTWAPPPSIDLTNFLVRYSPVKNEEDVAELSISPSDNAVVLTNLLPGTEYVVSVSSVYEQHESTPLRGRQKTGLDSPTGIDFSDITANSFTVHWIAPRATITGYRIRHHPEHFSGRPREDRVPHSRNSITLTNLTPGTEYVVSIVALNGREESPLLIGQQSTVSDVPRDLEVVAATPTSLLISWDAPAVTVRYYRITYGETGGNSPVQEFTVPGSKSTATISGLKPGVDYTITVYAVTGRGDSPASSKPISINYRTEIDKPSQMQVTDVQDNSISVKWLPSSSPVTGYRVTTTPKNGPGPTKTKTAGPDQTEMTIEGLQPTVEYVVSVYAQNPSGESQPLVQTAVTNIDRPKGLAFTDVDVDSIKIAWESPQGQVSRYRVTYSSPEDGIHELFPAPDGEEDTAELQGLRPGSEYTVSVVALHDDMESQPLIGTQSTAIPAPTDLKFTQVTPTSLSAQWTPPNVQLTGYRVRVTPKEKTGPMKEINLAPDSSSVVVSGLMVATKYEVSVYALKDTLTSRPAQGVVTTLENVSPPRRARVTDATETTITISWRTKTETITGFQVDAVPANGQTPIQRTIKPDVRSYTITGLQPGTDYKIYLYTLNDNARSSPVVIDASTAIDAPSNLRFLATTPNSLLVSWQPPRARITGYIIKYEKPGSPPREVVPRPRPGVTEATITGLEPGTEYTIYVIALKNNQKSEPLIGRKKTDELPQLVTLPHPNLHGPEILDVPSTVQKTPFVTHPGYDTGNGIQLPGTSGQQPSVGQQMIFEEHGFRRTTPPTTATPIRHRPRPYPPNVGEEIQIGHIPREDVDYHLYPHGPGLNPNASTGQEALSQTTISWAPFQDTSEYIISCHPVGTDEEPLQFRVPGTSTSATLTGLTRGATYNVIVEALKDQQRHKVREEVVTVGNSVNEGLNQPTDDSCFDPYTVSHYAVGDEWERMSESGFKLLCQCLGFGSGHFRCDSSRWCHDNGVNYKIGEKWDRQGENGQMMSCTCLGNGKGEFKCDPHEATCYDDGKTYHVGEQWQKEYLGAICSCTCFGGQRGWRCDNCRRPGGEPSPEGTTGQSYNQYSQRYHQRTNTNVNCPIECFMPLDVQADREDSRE

reflectance signal at 50 ng/ml oncofetal fibronectin (reflectance signal): 0.315
Substance: monoclonal antibody FDC-6 produced by hybridoma ATCC HB 9018
